Values of other authors as cited in publication PMC11053944.

Legend:
[1] = molecular target: Sba1 (Saccharomyces cerevisiae) (UniProt P28707); assay: ITC
[2] = molecular target: Sba1 (Saccharomyces cerevisiae) (UniProt P28707); assay: SPR

Sba1 (Saccharomyces cerevisiae), sequence (P28707 2-216): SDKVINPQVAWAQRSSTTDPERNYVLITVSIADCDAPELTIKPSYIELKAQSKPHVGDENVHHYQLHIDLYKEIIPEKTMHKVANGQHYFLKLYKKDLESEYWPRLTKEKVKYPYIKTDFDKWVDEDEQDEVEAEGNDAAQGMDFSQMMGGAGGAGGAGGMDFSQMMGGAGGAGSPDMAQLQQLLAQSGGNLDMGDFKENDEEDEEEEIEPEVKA

For HSP90 (from UniProt P02829), the Kd [1] is listed as 1750 nM and the Kd [2] is listed as 540 nM.
